According to US8580932B2, “Method of thermostabilization of a protein and/or stabilization towards organic solvents” (Masarykova Univerzita, priority 2011, dated 2013):
Positions count from the first letter of the chain named. Names and notes keep the numbering of the source.

Experiments:
[1] = Kinetic half-life assay of DhaA variants in 40% (v/v) DMSO; format: biochemical, Rhodococcus rhodochrous NCIMB 13064; conditions: 60 mM glycine buffer (pH 8.6), 37° C.
[2] = Steady-state kinetics of haloalkane dehalogenases by isothermal titration calorimetry; format: biochemical; conditions: pH 8.6, 25° C.; for ar (relative activity): percentage of specific activity in glycine buffer
Description: Substrate to product conversion by the action of enzymes was carried out using VP-ITC isothermal titration microcalorimeter (MicroCal), by single injection method. The substrate 1-iodohexane was dissolved in 100 mM glycine buffer (pH 8.6) containing appropriate volume of organic solvent and equilibrated at 25° C. in the sample cell (1.4 ml). The reaction was initiated by injecting of 10 μl of 1 mg/ml enzyme solution dialyzed overnight against the same solution as used for dissolving of the substrate. The heat flow (μcal s^−1) was recorded as a function of time. The reaction rate was calculated according to the equation:
[formula] where V is the volume of the sample cell, [S] is substrate concentration and ΔH is the enthalpy of the conversion of substrate to product and was determined experimentally by titration of the substrate into the sample cell containing the enzyme. The evaluated rate of substrate depletion (−d[S]/dt), and corresponding substrate concentration were fitted by nonlinear regression to kinetic models by using Origin 6.1 software (OriginLab, Massachusetts, USA). Results

[3] = Haloalkane dehalogenase activity assay in the presence of organic solvents; format: biochemical; conditions: 100 mM glycine buffer (pH 8.6), 37° C., 1-iodohexane (FIG. 12)
Description: Haloalkane dehalogenase activity was assayed at 37° C. by a previously described method (Iwasaki, I., Utsumi, S., and Ozawa, T. 1952: New colorimetric determination of chloride using mercuric thiocyanate and ferric ion. Bulletin of the Chemical Society of Japan 25: 226-226). The released halide ions were analysed spectrophotometrically at 460 nm after a reaction with mercuric thiocyanate and ferric ammonium sulphate. The reaction mixture was composed of 100 mM glycine buffer (pH 8.6), 2 μl of substrate 1-iodohexane and appropriate amount of organic solvent. Solvent concentration was increased until the enzyme activity dropped below fifty per cent. The reaction was initiated by the addition of enzyme in a final concentration of 0.15 μM. The reaction was monitored by withdrawing samples at periodical intervals from the reaction mixture. The samples were immediately mixed with 35% nitric acid to terminate the reaction. Dehalogenation activity was quantified as a rate of product formation in time. Each activity was measured in 3-5 independent replicates and expressed as mean values of relative activity, represented percentage of activity in pure buffer.

[4] = 12 different substrates; cited from earlier work
[5] = format: physicochemical, Sphingobium japonicum UT26; conditions: for ΔTm: compared to the wild type LinB; for Tm: ellipticity at 222 nm, 20 to 80° C., 1° C./min, 50 mM potassium phosphate buffer (pH 7.5)
Description: Circular dichroism spectra were recorded at 20° C. using a Jasco J-810 spectrometer (Jasco, Tokyo, Japan) coupled with Peltier temperature controller. Data were collected from 185 to 260 nm, at 100 nm/min, 1 s response time and 2 nm bandwidth using a 0.1 cm quartz cuvette containing the enzyme variant in 50 mM potassium phosphate buffer (pH 7.5). Each spectrum shown is the average of ten individual scans and was corrected for absorbance caused by the buffer. CD data were expressed in terms of the mean residue ellipticity (ΘMRE) using the equation: […]
Thermal unfolding of LinB enzyme variants was followed by monitoring the ellipticity at 222 nm over the temperature range of 20 to 80° C., with a resolution 0.1° C., at a heating rate 1° C./min. Recorded thermal denaturation curves were roughly normalized to represent signal changes between approximately 1 and 0 and fitted to sigmoidal curves using software Origin 6.1 (OriginLab, Massachusetts, USA). The melting temperatures (Tm) were evaluated as a midpoint of the normalized thermal transition.

[6] = formamide 5% (v/v), 1-iodohexane

B1: DhaA: haloalkane dehalogenase DhaA from Rhodococcus rhodochrous NCIMB13064 (protein, UniProt P0A3G2 1-293, looked up)
Haloalkane dehalogenase: MSEIGTGFPFDPHYVEVLGERMHYVDVGPRDGTPVLFLHGNPTSSYLWRNIIPHVAPSHRCIAPDLIGMGKSDKPDLDYFFDDHVRYLDAFIEALGLEEVVLVIHDWGSALGFHWAKRNPERVKGIACMEFIRPIPTWDEWPEFARETFQAFRTADVGRELIIDQNAFIEGALPKCVVRPLTEVEMDHYREPFLKPVDREPLWRFPNELPIAGEPANIVALVEAYMNWLHQSPVPKLLFWGTPGVLIPPAEAARLAESLPNCKTVDIGPGLHYLQEDNPDLIGSEIARWLPAL
- deactivation in the presence of DMSO [1]: proceeded rapidly
- K0.5 (concentration of substrate at half maximal velocity) [2, 6]: 4.2 µM
- Ksi (substrate inhibition constant) [2, 6]: 0.6 mM
- nH (Hill coefficient) [2, 6]: 2.0
- ar (relative activity) ([2]; formamide 5% (v/v)): 130%
- ar (relative activity) ([2]; glycine buffer (reference)): 100%
- K0.5 (concentration of substrate at half maximal velocity) ([2]; glycine buffer, 1-iodohexane): 8.5 µM
- Ksi (substrate inhibition constant) ([2]; glycine buffer, 1-iodohexane): 1.1 mM
- kcat ([2]; glycine buffer, 1-iodohexane): 0.9 s⁻¹
- nH (Hill coefficient) ([2]; glycine buffer, 1-iodohexane): 2.0
- Specific activity in glycine buffer [3]: 0.0355 μmol s^−1 mg^−1 of enzyme

B2: L177P: LinB variant in the position 177 (protein, UniProt D4Z2G1 2-296, looked up, variant L177P)
Haloalkane dehalogenase: SLGAKPFGEKKFIEIKGRRMAYIDEGTGDPILFQHGNPTSSYLWRNIMPHCAGLGRLIACDLIGMGDSDKLDPSGPERYAYAEHRDYLDALWEALDLGDRVVLVVHDWGSALGFDWARRHRERVQGIAYMEAIAMPIEWADFPEQDRDLFQAFRSQAGEELVLQDNVFVEQVLPGPILRPLSEAEMAAYREPFLAAGEARRPTLSWPRQIPIAGTPADVVAIARDYAGWLSESPIPKLFINAEPGALTTGRMRDFCRTWPNQTEITVAGAHFIQEDSPDEIGAAIAAFVRRLRPA
- activity with tested substrates [4]: did not show activity with any of tested substrates

B3: L177K: LinB variant in the position 177 (protein, UniProt D4Z2G1 2-296, looked up, variant L177K)
Haloalkane dehalogenase: B2 Haloalkane dehalogenase with P176K
- thermal stability compared to the wild type enzyme [5]: improvement in thermal stability
- ΔTm [5]: 3.0 °C
- Tm [5]: 51.01 ± 0.54 °C

B4: L177M: LinB variant in the position 177 (protein, UniProt D4Z2G1 2-296, looked up, variant L177M)
Haloalkane dehalogenase: B2 Haloalkane dehalogenase with P176M
- ΔTm [5]: −0.3 °C
- Tm [5]: 47.78 ± 0.17 °C

B5: L177Q: LinB variant in the position 177 (protein, UniProt D4Z2G1 2-296, looked up, variant L177Q)
Haloalkane dehalogenase: B2 Haloalkane dehalogenase with P176Q
- ΔTm [5]: 0.0 °C
- Tm [5]: 48.08 ± 0.17 °C

B6: L177H: LinB variant in the position 177 (protein, UniProt D4Z2G1 2-296, looked up, variant L177H)
Haloalkane dehalogenase: B2 Haloalkane dehalogenase with P176H
- ΔTm [5]: 0.8 °C
- Tm [5]: 48.85 ± 0.28 °C
